Experimental data from the nanobody polyreactivity screen of Harvey et al. (2022).

Assay: yeast display, Sf9 membrane polyspecificity reagent, FACS + sequencing; frameworks hold sequencing errors
Procedure, shortened: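 Using colony PCR, genes from sorted yeast display clones were amplified, then sequenced on MiSeq at 2 × 250 and filtered by CDR length. The clones had been stained with 10% biotinylated, detergent-solubilized Sf9 membrane reagent for 1 hour at 4 °C and sorted by FACS into low and high (top ~1%) gates on anti-HA and streptavidin fluorescence. Polyreactivity labels come from the gate of origin.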

Sequence | polyreactivity (PSR sort gate)
QVQLVESGGGLVQAGGSLRLSCAASGSIFNINAMGWYRQAPGKERELVAAITTSGGRTYYADSVKGRFTISRDNAKNTVYLQMNSLKPEVTAVYYCATSHYGSTGNYWGQGTQVTVSS | low polyreactivity
QVKLVESGGGLVQSGGSLRLTSAASGSTFPRYAMGWYRQAPGKEREFVAVIWSGGSTYYADSVKGRLTISRDNAKNTVYLQMNSLKPEDTAVYYCAAEYHTLSLDSGYATHDYWGQGTQVTVSS | low polyreactivity
QVQLVESGGGLVQAGGSLRLSCAASGSIFYRYAMGWNRQAPGKEKELVAAISRSGGRTYYADSVKGRFTISRDNAMNTVYLQMNSLKPEDTAVYYCAAESTVGTDLGGYSWGQGSQVTVSS | high polyreactivity
QVQLVESVGGLVQAGGSLRLSCAASGSTFTDYDMGWYRQAPGKERELVADISSGGSTYYADSVKGRFTISRDNAKNTVYLQMNSLKPEDTAVYYCNTDLRLVYRTKGFISWGYDYWGQGTQVTVSS | low polyreactivity
QVQLVESGGGLVQAGGSLRLSCAASGSIYTYYAMGWYRQAPGKEMELVADIRWSGGSTYYADSVKGRFTISRDNAKNTVYLQMNSLKPEDTAVYYCNARYYSYCPIYNFDYWGQGTQVTVSS | low polyreactivity
QVQLVESGGGLVQAGGSLRLSCAASGFTFYYYAMGWYRQAPGKERELVAAINWSGGTTYYADSVKGRFTISRDNAKNTVYLQMNSLKPEDTAVYYCAVSVFTVAPYRRYDYWGQGTQVTVSS | high polyreactivity
QVQLVESGGGLVQAGGSLRLSCAASGSILHLYAMGWYRQAPGKERELVARINSGGTTNYADSVKGRFTISRDNAKNTVYLQMNSLKPEDTAVYYCAARFTPFITSDDGHYDYWGQGTQVTVSS | low polyreactivity
QVQLVESGGGLVQAGGSLRLSCAASGFTFDPYAMGWYREAPGKERELVAAISFSGGSTSYADSVKGRFTISRDNAKNSVYFQMNSLKPEDTAVYYCAAYSWLYEGYEYWGQGTQVTVSS | high polyreactivity
QVQLVESGGGLVQAGGSLRLSCAASGTFYGYAMGGYRQSPGKERELVAAITWSGGSTYYADSVKGRFTISRDNAKNTVYLQMNSLKPEDTAVYYCAASLYSGYDSWGQGTQVTVSS | low polyreactivity
QVQLVESGGGLVQAGGSLRLSCAASGSTSVQYAMGWYRQAPGKERELVAAIDRSGGSTSYADSVKGRFTISRYNAKNTVYLQMNSLKPEDTAVYYCNADPVRSTYSYDYWGQGTQVTVSS | low polyreactivity
QVQLVESGGGLVQAGGSLRLSCAASGRTFSGYAMGWYRQATGKERELVAAITRRGGTTYYADSVKGRFTISRDNAKNTVYLQMNSLKPEDTAVYYCAAAKPRVISQNIIYDYWGQGTQVTVSS | high polyreactivity
QVQLVESGGGLVQAGGSLRLSCAASGRTFGFYAMGWYRQAPGKERELVATISSSGGSTYYADSVKGRFTISRDNAKNTVYLQMNSLKPEDTAVYYCAADYLDSTYGYVYGWDDYWGQGTQVTVSS | low polyreactivity
QVQLVESGGGLVQAGGSLRLSCAASGRTFFIYAMGWYRPAPGKERELVAAITYGGGRTFYADSVKGRFTISRDNAKYTVYLQMNSLKPEDTAVYYCAATVRGKRSTYDYWGQGTQVTVSS | high polyreactivity
QVQLVESGGGLLQAGGSLRLSCAASGRNFRYYAMGWYRQAPRKERELVAAITRGGRTNYADSVKGRFTISRDNAKNTVYLQMNSLKPEDSAVYYCAADYTKYYRRYYYWGQGTQVTVSS | high polyreactivity
QVQLVESGGGLVQSGGSLRLTCAASGYIFGYYTMGWYRQAPGKERELVATIRSGGSTYYADSVKGRFTISRDNAKNTVFLHMNSLKAEDTAVYYCAIRVRRISEYGYWGQGTQVTVSS | high polyreactivity
QVQLVESGGGVVQAGGSLRISCAATGFIFRWYAMGWYIQAPGKERELVASINWSGSRTNYADPVKGRFTISRDNAKNTVYLQMNSLKPEDTAVYYCATYGTTSGYDSWGQGTQVTVSS | high polyreactivity
RVQLVESGGGLVQAGGSLRLSCAASGSTFENYAMGWYRQAPGKERELVAAISSGGSTYYADSVKGRFTISRDNAKNTVYLQMNSLKPEDTAVYYCAAELEYWLYGYGYYYWGQGTQVTVSS | high polyreactivity
QVQLVESGGGLVQAGGSLRLSCASSGSTIGRNAMGWYRQAPGKERELVASISSGGSTYYADSVKGRFTISRDNAKNTVYLQMESLKPEDTAVYYCARRAYQNWYNYWGQGTQVTVAS | high polyreactivity
QVQLVESGGGLVQAGGSLRLSCAASGRIFVFNDMGWYRQAPGKERELVAAISSGGNTYYADSVKGRFTISRDNAKNTVYLQMNSLKPEDTAVYYCAKVSRWSYKGSPYDYWGQGTQVTVSS | high polyreactivity
QVQLVESGGGLVQAGGSLRLSCAASGSTFIVNALGGYRQAPGHEREFVAAIRWSGGSTYYADSVKGRFTISRDNAKNTVYFQMNSLKPDDTAVYYCNARSYQSARFRGGYWGQGTQVTVSS | high polyreactivity
QVQLVESGGGLVQAGGSLRLSCAASGYIFISYAMGWYRQAPGKEREFVAAITGDGGSTYADSVKGRFSISRDNAKNTVYLQMNSLKPEDTAVYYCAVDGYGGEADYEYDHCGQGTQVTVSS | low polyreactivity
QVQLVESGGGVVQAGGSLRLSCAASGSIFDGYARGWYRQAPGKERELVAAITRDGGSTHYADSVKGRFTISRDNAKNTVYLEMNSLKPEDTAVYYCASRDHAFRYYRNPFKGKYDYWGQGTQVTVSS | low polyreactivity
QVQLVESGGGLVQAGGSLRLSCAASGSTFPSNAMGRYRQAPGKERELVAVISTSGVRTYYADSVKGRFTISRDNAKNTVYLQMNSLKPEDTAVYYCAARTRSYGGNGYRYPFDYWGQGTQVTVSS | high polyreactivity
QVQLVESGGGLVQAGGSLRLSCAASGSTSLYNMGWSRQAPGKERELVAAIDSGSTNYADSVKGRFTISRDNAKNTVYLQMNSLKPEDTAVYYCAADGTNIGVYDRASYRDDYWGQGTQVTVSS | low polyreactivity
QVQLVESVGGLVQAGGSLRLSCDASGYIFKNYAMGWYIQAPGKERELVAAINWSGGNTYYADSVKGRFTISRDNAKNTVYLQMNSLKPEDTAVYYCNAVSSLRSYGYNYCGQGTQVTVSS | low polyreactivity
QLQLVESGGGLVQAGGSLRLSCAASGSTFLYNAMGWYRQAPGKERELVAAITVSDGSTYYADSVKGRFTISRDNAKNTVYLKMNSLKPVDTAVYYCNADFPRKTRYEYWGQGTQVTVSS | low polyreactivity
QVQLVESGGGLVQAGGSLRLSCAASGFIFHRYAMGWYRQAPGKERELVATITASGGSTYYADSVKGRFTISRDNAKNTVYLQMNSLKPEDTAVYYCAAGSFSRGRRTRQYNFDYWGQGTQVTVSS | high polyreactivity
QVQLVESGGGLVQAGGSLRLSCAASGSTGYYAMGWYRQAPGKERELVAAISYRGASTYYADSVKGRFTISRDNAKNTVYLQMNSLKPEDTAVYYCAALRQERVKYGYWGQGTQVTVSS | high polyreactivity
QVQLVESGGGLVQAGGSLRLSCAASGSIFGFYAMGWYRQAPGKERELVAAISDSGDSTYYADSVKGRFTISRDNAKNTVYLQMNSLKPEDTAVYYCATDGRSNYYWGDYWGQGTQVTVSS | low polyreactivity
QVQLQESGGRLVQADGSLRLSCAASGSIFGYYYMGWYRQAPGKDRELVATINICGITNYADSVKGRFTISRDNAKNTVYLQMNSLKPDDTAVYYCAADEYAQRDLGYWGQGTQVTVSS | low polyreactivity
